Experimental data published in publication PMC3645317.

Target: gHΔTM-Fc/gL (Kaposi's sarcoma-associated herpesvirus (KSHV))

solEphA2-Fc, sequence (P29317 25-534): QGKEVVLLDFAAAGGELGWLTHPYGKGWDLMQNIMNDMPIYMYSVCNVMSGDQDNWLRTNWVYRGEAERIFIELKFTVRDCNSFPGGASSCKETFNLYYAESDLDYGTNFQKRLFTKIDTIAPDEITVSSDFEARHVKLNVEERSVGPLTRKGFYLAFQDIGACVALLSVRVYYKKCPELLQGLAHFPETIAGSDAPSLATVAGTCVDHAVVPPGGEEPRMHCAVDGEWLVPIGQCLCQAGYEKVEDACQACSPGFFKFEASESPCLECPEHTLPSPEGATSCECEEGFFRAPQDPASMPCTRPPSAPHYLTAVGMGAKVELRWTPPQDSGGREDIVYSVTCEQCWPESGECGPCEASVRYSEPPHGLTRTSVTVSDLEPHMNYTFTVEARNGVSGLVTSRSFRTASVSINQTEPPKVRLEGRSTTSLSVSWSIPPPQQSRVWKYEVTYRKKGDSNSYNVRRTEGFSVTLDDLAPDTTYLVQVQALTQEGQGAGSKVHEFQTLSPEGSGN

## solEphA2-Fc (from UniProt P29317-1 25-534) (Fc fusion)
  inhibition of KSHV infection of 293T cells by solEphA2-Fc at 2 µg/ml: 80%
